Measurements as given in patent US7482146B1, “Phenylethanolamine-N-methyltransferase sequence variants” (Mayo Foundation for Medical Education and Research, priority 2003, dated 2009).
Like-named read-outs stand apart in the source and are kept apart here.

Tests used:
[1] = tested on: PNMT; assay: PNMT enzyme activity assay of recombinant allozymes (14C-SAM methylation of octopamine); type: biochemical, human; conditions: recombinant allozyme in COS-1 cell homogenate; 65.9 μM octopamine, 24.22 μM 14C-SAM; corrected for transfection efficiency
Description: Recombinant PNMT Expression Constructs and Allozyme Expression: PNMT cDNA sequences for the three non-synonymous cSNPs that were observed during the resequencing experiments were created using the QuickChange Site-Directed Mutagenesis kit (Stratagene, La Jolla, Calif.), using the wild type PNMT cDNA open reading frame (ORF) in the pUni/V5-His-TOPO (pUni) vector (Invitrogen) as template. Specifically, the full-length wild type ORF (GenBank accession number J03727) was amplified using human brain Marathon-Ready cDNA (Clontech) as template. The resultant PNMT cDNA was subcloned into pUni, a vector that is only 2.3 kilobases in length, so it is well suited for performing “circular PCR” during site-directed mutagenesis. […]
PNMT Enzyme Activity: PNMT activity was measured using a method based on that of Molnicoff et al. (1971) J. Pharmacol. Exp. Ther. 178(3):425-431. […] “Blank” samples included the same quantity of COS-115,000×g supernatant from cells that were transfected with “empty” pCR3.1 expression vector, making it possible to correct for endogenous activity. Reaction mixtures were incubated at 37° C. for 30 minutes, and reactions were stopped with 500 μl Borate Buffer (pH 10). ^14C-N-methyl-octopamine was extracted into toluene containing 20% isoamyl alcohol, and radioactivity of the extracted ^14C-N-methyl-octopamine was measured in a liquid scintillation counter. […]

[2] = tested on: PNMT; assay: Substrate kinetics: apparent Km values of recombinant PNMT allozymes for octopamine and SAM; type: biochemical, human; conditions: recombinant allozyme from COS-1 cells
Experimental: Expression constructs for the wild type and variant PNMT sequences were transfected into COS-1 cells using the TransFast™ reagent (Promega), with a 1:1 charge ratio. pSV-β-Galactosidase (Promega) was co-transfected as an internal control to make it possible to correct for transfection efficiency. The COS-1 cells were harvested after 48 hours and were homogenized with a Polytron homogenizer (Brinkmann Instruments, Westbury, N.Y.) in 25 mM potassium phosphate buffer, pH 7.8 that contained 1 mM dithiothreitol (DTT) and 1 mM EDTA. Cell homogenates were centrifuged at 15,000×g for 15 minutes, and the resultant supernatant preparations were used for enzyme assays and substrate kinetic studies.
Estimating Apparent Km Values: To estimate apparent Km values of PNMT for the octopamine substrate, a series of octopamine and SAM concentrations were tested with the recombinant allozymes. Blanks for each substrate concentration were included by assaying COS-1 cell cytosol after transfection with empty […] vector. […] Apparent Km values were calculated using the method of Wilkinson with a computer program written by Cleland. Wilkinson supra; and Cleland supra.

B1: WT: recombinant wild type (reference) human PNMT polypeptide, SEQ ID NO:8, expressed in COS-1 cells (protein)
chain: MSGADRSPNAGAAPDSAPGQAAVASAYQRFEPRAYLRNNYAPPRGDLCNPNGVGPWKLRCLAQTFATGEVSGRTLIDIGSGPTVYQLLSACSHFEDITMTDFLEVNRQELGRWLQEEPGAFNWSMYSQHACLIEGKGECWQDKERQLRARVKRVLPIDVHQPQPLGAGSPAPLPADALVSAFCLEAVSPDLASFQRALDHITTLLRPGGHLLLIGALEESWYLAGEARLTVVPVSEEEVREALVRSGYKVRDLRTYIMPAHLQTGVDDVKGVFFAWAQKVGL
modifications: Homo sapien
- % WT Enzyme activity [1]: 100 % WT
- Km ([2]; substrate SAM, read-out: Apparent Km (SAM)): 6.6 µM
- Km ([2]; substrate octopamine, listed as WT PNMT protein, read-out: Apparent Km (octopamine)): 13.6 µM
- Km ([2]; substrate octopamine, read-out: Apparent Km (octopamine)): 23.5 ± 3.1 µM
